Assay results reported in paper PMC7793301, “Assembly of infectious enteroviruses depends on multiple, conserved genomic RNA-coat protein contacts” (PLoS Pathogens, 2020).

T1: EV-E capsid protein VP1 (enterovirus-E (EV-E), UniProt P12915 560-840)
T1 construct: VP1, cut product of the enterovirus-E (formerly bovine enterovirus) polyprotein; genome NC_001859; numbers count on: the mature VP1; The N-terminal arm is not fully built in the model; source: EV-E propagated in BHK cells; virions purified (sucrose cushion, sucrose gradient)
T1 sequence: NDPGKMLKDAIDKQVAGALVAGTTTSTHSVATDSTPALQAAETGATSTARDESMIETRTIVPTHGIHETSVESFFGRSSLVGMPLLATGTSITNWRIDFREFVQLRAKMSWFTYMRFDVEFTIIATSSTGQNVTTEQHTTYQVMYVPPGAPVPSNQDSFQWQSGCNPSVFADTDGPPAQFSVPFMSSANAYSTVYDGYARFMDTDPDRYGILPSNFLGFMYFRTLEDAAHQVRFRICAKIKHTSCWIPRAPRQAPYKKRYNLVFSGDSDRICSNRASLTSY

B1: EV-E capsid protein VP2 (natural protein)
chain: SPSAEACGYSDRVAQLTLGNSTITTQEAANICVAYGCWPAKLSDTDATSVDKPTEPGVSADAFYTLRSKPWQADSKGWYWKLPDALNNTGMFGQNAQFHYIYRGGWAVHVQCNATKFHQGTLLVLAIPEHQIATQEQPAFDRTMPGSEGGTFQEPFWLEDGTSLGNSLIYPHQWINLRTNNSATLILPYVNAIPMDSAIRHSNWTLAIIPVAPLKYAAETTPLVPITVTIAPMETEYNGLRRAIASNQ
notes: VP2, cut product of VP0 of the enterovirus-E polyprotein; genome NC_001859; modelled from residue Y9; numbers count on: the mature VP2; source: EV-E propagated in BHK cells; virions purified (sucrose cushion, sucrose gradient)

Tests used:
[1] = target: B1; experiment: cryo-EM structure; purified EV-E virions in PBS; single particle analysis with icosahedral symmetry, ~2.2 Å; also symmetry expansion and focused classification; conditions: both partners purified
[2] = target: T1, EV-E capsid protein VP1; experiment: as above; conditions: both partners purified

Binder | binding result [1] | binding result [2]
EV-E capsid protein VP3 (natural protein, VP3, cut product of the enterovirus-E polyprotein; genome NC_001859; numbers count on: the mature VP3; source: EV-E propagated in BHK cells; virions purified (sucrose cushion, sucrose gradient)) GLPTKPGPGSYQFMTTDEDCSPCILPDFQPTLEIFIPGKVNNLLEIAQVESILEANNREGVEGVERYVIPVSVQDALDAQIYALRLELGGSGPLSSSLLGTLAKHYTQWSGSVEITCMFTGTFMTTGKVLLAYTPPGGDMPRNREEAMLGTHVVWDFGLQSSITLVIPWISASHFRGVSNDDVLNYQYYAAGHVTIWYQTNMVIPPGFPNTAGIIMMIAAQPNFSFRIQKDREDMTQTAILQ | binds | binds
B1 | – | binds
